Test results published in the Human Domainome abundance scans (Beltran et al. 2025).
± gives the uncertainty stated by the source.

Experiment: abundance fitness (aPCA) (normalised: wild type 0, dead -1); higher = more abundant; growth selection in yeast, the domain comes from the species named
Details: Homo sapiens

“Scaffold attachment factor B2 Q69A, Q14151” and “Scaffold attachment factor B2 Q69C, Q14151” are within error of each other in abundance fitness: -0.094 ± 0.13 for the first, -0.307 ± 0.2 for the second.

First: Scaffold attachment factor B2 Q69F, Q14151
Second: Scaffold attachment factor B2 Q69G, Q14151
The abundance fitness of the first is lower: -0.656 ± 0.2 for the first, 0.174 ± 0.095 for the second.

“Scaffold attachment factor B2 Q69H, Q14151” and “Scaffold attachment factor B2 Q69I, Q14151” are within error of each other in abundance fitness: -0.143 ± 0.2 for the first, -0.262 ± 0.11 for the second.

“Scaffold attachment factor B2 Q69K, Q14151” and “Scaffold attachment factor B2 Q69L, Q14151” are within error of each other in abundance fitness: -0.164 ± 0.1 for the first, -0.133 ± 0.11 for the second.

“Scaffold attachment factor B2 Q69M, Q14151” and “Scaffold attachment factor B2 Q69N, Q14151” are within error of each other in abundance fitness: -0.27 ± 0.19 for the first, -0.717 ± 0.32 for the second.

“Scaffold attachment factor B2 Q69P, Q14151” and “Scaffold attachment factor B2 Q69R, Q14151” are within error of each other in abundance fitness: -0.227 ± 0.15 for the first, -0.104 ± 0.074 for the second.

“Scaffold attachment factor B2 Q69S, Q14151” and “Scaffold attachment factor B2 Q69T, Q14151” are within error of each other in abundance fitness: -0.077 ± 0.11 for the first, -0.261 ± 0.12 for the second.

“Scaffold attachment factor B2 Q69V, Q14151” and “Scaffold attachment factor B2 Q69W, Q14151” are within error of each other in abundance fitness: -0.175 ± 0.11 for the first, -0.285 ± 0.13 for the second.

“Scaffold attachment factor B2 R28A, Q14151” and “Scaffold attachment factor B2 R28C, Q14151” are within error of each other in abundance fitness: -0.139 ± 0.094 for the first, -0.271 ± 0.15 for the second.

“Scaffold attachment factor B2 R28D, Q14151” and “Scaffold attachment factor B2 R28E, Q14151” are within error of each other in abundance fitness: 0.131 ± 0.081 for the first, 0.088 ± 0.1 for the second.

“Scaffold attachment factor B2 R28G, Q14151” and “Scaffold attachment factor B2 R28H, Q14151” are within error of each other in abundance fitness: 0.05 ± 0.071 for the first, 0.063 ± 0.2 for the second.

“Scaffold attachment factor B2 R28I, Q14151” and “Scaffold attachment factor B2 R28K, Q14151” are within error of each other in abundance fitness: -0.342 ± 0.18 for the first, -0.033 ± 0.14 for the second.

“Scaffold attachment factor B2 R28L, Q14151” and “Scaffold attachment factor B2 R28N, Q14151” are within error of each other in abundance fitness: -0.176 ± 0.11 for the first, -0.005 ± 0.15 for the second.

Going from “Scaffold attachment factor B2 R28P, Q14151” to “Scaffold attachment factor B2 R28T, Q14151”, the abundance fitness rises from -0.437 ± 0.22 to -0.045 ± 0.12.

“Scaffold attachment factor B2 R28W, Q14151” and “Scaffold attachment factor B2 R28Y, Q14151” are within error of each other in abundance fitness: -0.14 ± 0.086 for the first, -0.377 ± 0.18 for the second.

First: Scaffold attachment factor B2 R29C, Q14151
Second: Scaffold attachment factor B2 R29D, Q14151
The abundance fitness of the first is lower: -0.474 ± 0.31 for the first, 0.089 ± 0.093 for the second.

First: Scaffold attachment factor B2 R29E, Q14151
Second: Scaffold attachment factor B2 R29F, Q14151
The abundance fitness of the first is higher: 0.113 ± 0.095 for the first, -0.237 ± 0.15 for the second.

“Scaffold attachment factor B2 R29G, Q14151” and “Scaffold attachment factor B2 R29H, Q14151” are within error of each other in abundance fitness: -0.127 ± 0.074 for the first, -0.099 ± 0.15 for the second.

“Scaffold attachment factor B2 R29I, Q14151” and “Scaffold attachment factor B2 R29K, Q14151” are within error of each other in abundance fitness: -0.211 ± 0.15 for the first, -0.038 ± 0.099 for the second.

“Scaffold attachment factor B2 R29L, Q14151” and “Scaffold attachment factor B2 R29M, Q14151” are the same in abundance fitness: -0.288 ± 0.07 for the first, -0.288 ± 0.13 for the second.

“Scaffold attachment factor B2 R29N, Q14151” and “Scaffold attachment factor B2 R29P, Q14151” are within error of each other in abundance fitness: -0.016 ± 0.11 for the first, -0.117 ± 0.13 for the second.

“Scaffold attachment factor B2 R29Q, Q14151” and “Scaffold attachment factor B2 R29S, Q14151” are within error of each other in abundance fitness: -0.162 ± 0.1 for the first, -0.097 ± 0.1 for the second.

“Scaffold attachment factor B2 R29T, Q14151” and “Scaffold attachment factor B2 R29V, Q14151” are within error of each other in abundance fitness: -0.01 ± 0.16 for the first, -0.233 ± 0.08 for the second.

“Scaffold attachment factor B2 R29W, Q14151” and “Scaffold attachment factor B2 R29Y, Q14151” are within error of each other in abundance fitness: -0.246 ± 0.083 for the first, -0.4 ± 0.12 for the second.

“Scaffold attachment factor B2 R34A, Q14151” and “Scaffold attachment factor B2 R34D, Q14151” are within error of each other in abundance fitness: 0.049 ± 0.079 for the first, -0.055 ± 0.12 for the second.

Going from “Scaffold attachment factor B2 R34F, Q14151” to “Scaffold attachment factor B2 R34G, Q14151”, the abundance fitness rises from -0.673 ± 0.23 to 0.012 ± 0.077.

Compared with “Scaffold attachment factor B2 R34H, Q14151”, “Scaffold attachment factor B2 R34I, Q14151” is lower in abundance fitness: -0.205 ± 0.13 for the first, -0.75 ± 0.15 for the second.

Going from “Scaffold attachment factor B2 R34K, Q14151” to “Scaffold attachment factor B2 R34L, Q14151”, the abundance fitness falls from -0.184 ± 0.12 to -0.473 ± 0.089.

“Scaffold attachment factor B2 R34M, Q14151” and “Scaffold attachment factor B2 R34N, Q14151” are within error of each other in abundance fitness: -0.31 ± 0.1 for the first, -0.456 ± 0.33 for the second.

“Scaffold attachment factor B2 R34P, Q14151” and “Scaffold attachment factor B2 R34Q, Q14151” are within error of each other in abundance fitness: 0.02 ± 0.13 for the first, 0.003 ± 0.081 for the second.

“Scaffold attachment factor B2 R34S, Q14151” and “Scaffold attachment factor B2 R34T, Q14151” are within error of each other in abundance fitness: 0.14 ± 0.087 for the first, 0.157 ± 0.099 for the second.

Compared with “Scaffold attachment factor B2 R34V, Q14151”, “Scaffold attachment factor B2 R34W, Q14151” is lower in abundance fitness: -0.45 ± 0.087 for the first, -0.679 ± 0.086 for the second.

“Scaffold attachment factor B2 R34Y, Q14151” and “Scaffold attachment factor B2 R39G, Q14151” are within error of each other in abundance fitness: -0.616 ± 0.12 for the first, -0.606 ± 0.14 for the second.

“Scaffold attachment factor B2 R45C, Q14151” and “Scaffold attachment factor B2 R45D, Q14151” are within error of each other in abundance fitness: -0.686 ± 0.14 for the first, -0.52 ± 0.13 for the second.

Compared with “Scaffold attachment factor B2 R45E, Q14151”, “Scaffold attachment factor B2 R45F, Q14151” is lower in abundance fitness: -0.411 ± 0.097 for the first, -0.784 ± 0.21 for the second.

“Scaffold attachment factor B2 R45G, Q14151” and “Scaffold attachment factor B2 R45H, Q14151” are within error of each other in abundance fitness: -0.486 ± 0.08 for the first, -0.721 ± 0.23 for the second.

“Scaffold attachment factor B2 R45K, Q14151” and “Scaffold attachment factor B2 R45L, Q14151” are within error of each other in abundance fitness: -0.374 ± 0.12 for the first, -0.201 ± 0.078 for the second.

“Scaffold attachment factor B2 R45M, Q14151” and “Scaffold attachment factor B2 R45N, Q14151” are within error of each other in abundance fitness: -0.66 ± 0.29 for the first, -0.99 ± 0.24 for the second.

Compared with “Scaffold attachment factor B2 R45P, Q14151”, “Scaffold attachment factor B2 R45Q, Q14151” is higher in abundance fitness: -0.682 ± 0.11 for the first, -0.326 ± 0.091 for the second.

“Scaffold attachment factor B2 R45S, Q14151” and “Scaffold attachment factor B2 R45T, Q14151” are within error of each other in abundance fitness: -0.509 ± 0.092 for the first, -0.576 ± 0.11 for the second.

“Scaffold attachment factor B2 R45V, Q14151” and “Scaffold attachment factor B2 R45W, Q14151” are within error of each other in abundance fitness: -0.565 ± 0.095 for the first, -0.709 ± 0.085 for the second.

“Scaffold attachment factor B2 R59A, Q14151” and “Scaffold attachment factor B2 R59C, Q14151” are within error of each other in abundance fitness: -0.465 ± 0.092 for the first, -0.583 ± 0.19 for the second.

“Scaffold attachment factor B2 R59D, Q14151” and “Scaffold attachment factor B2 R59E, Q14151” are within error of each other in abundance fitness: -0.54 ± 0.24 for the first, -0.294 ± 0.099 for the second.

“Scaffold attachment factor B2 R59G, Q14151” and “Scaffold attachment factor B2 R59H, Q14151” are within error of each other in abundance fitness: -0.23 ± 0.11 for the first, -0.474 ± 0.22 for the second.

First: Scaffold attachment factor B2 R59I, Q14151
Second: Scaffold attachment factor B2 R59K, Q14151
The abundance fitness of the first is lower: -1.2 ± 0.22 for the first, -0.41 ± 0.19 for the second.

“Scaffold attachment factor B2 R59L, Q14151” and “Scaffold attachment factor B2 R59M, Q14151” are within error of each other in abundance fitness: -0.771 ± 0.1 for the first, -0.643 ± 0.12 for the second.

“Scaffold attachment factor B2 R59N, Q14151” and “Scaffold attachment factor B2 R59P, Q14151” are within error of each other in abundance fitness: -0.623 ± 0.32 for the first, -0.249 ± 0.094 for the second.

Compared with “Scaffold attachment factor B2 R59Q, Q14151”, “Scaffold attachment factor B2 R59S, Q14151” is higher in abundance fitness: -0.595 ± 0.097 for the first, -0.322 ± 0.087 for the second.

Compared with “Scaffold attachment factor B2 R59T, Q14151”, “Scaffold attachment factor B2 R59V, Q14151” is lower in abundance fitness: -0.223 ± 0.15 for the first, -0.496 ± 0.097 for the second.

First: Scaffold attachment factor B2 R59W, Q14151
Second: Scaffold attachment factor B2 S31A, Q14151
The abundance fitness of the first is lower: -1.25 ± 0.15 for the first, -0.051 ± 0.1 for the second.

Going from “Scaffold attachment factor B2 S31C, Q14151” to “Scaffold attachment factor B2 S31D, Q14151”, the abundance fitness rises from -0.415 ± 0.16 to -0.086 ± 0.12.

Compared with “Scaffold attachment factor B2 S31E, Q14151”, “Scaffold attachment factor B2 S31F, Q14151” is lower in abundance fitness: -0.01 ± 0.092 for the first, -0.488 ± 0.16 for the second.

“Scaffold attachment factor B2 S31G, Q14151” and “Scaffold attachment factor B2 S31H, Q14151” are within error of each other in abundance fitness: -0.208 ± 0.076 for the first, -0.194 ± 0.09 for the second.

“Scaffold attachment factor B2 S31K, Q14151” and “Scaffold attachment factor B2 S31L, Q14151” are within error of each other in abundance fitness: -0.221 ± 0.11 for the first, -0.312 ± 0.1 for the second.

Going from “Scaffold attachment factor B2 S31M, Q14151” to “Scaffold attachment factor B2 S31N, Q14151”, the abundance fitness rises from -0.341 ± 0.11 to -0.027 ± 0.11.
